Assay results taken from patent US20250163164A1 (LANOVA MEDICINES DEVELOPMENT, published 2025).
Substitutions are numbered along the chain they refer to. Values joined by “and” are separate entries in the source; they are usually repeats but may differ in a detail not shown here. Equal entries are not always repeated.

T1: human interleukin 13 receptor subunit alpha 2 (IL-13RA2) (human, UniProt Q14627 27-380)
T1 sequence (looked up): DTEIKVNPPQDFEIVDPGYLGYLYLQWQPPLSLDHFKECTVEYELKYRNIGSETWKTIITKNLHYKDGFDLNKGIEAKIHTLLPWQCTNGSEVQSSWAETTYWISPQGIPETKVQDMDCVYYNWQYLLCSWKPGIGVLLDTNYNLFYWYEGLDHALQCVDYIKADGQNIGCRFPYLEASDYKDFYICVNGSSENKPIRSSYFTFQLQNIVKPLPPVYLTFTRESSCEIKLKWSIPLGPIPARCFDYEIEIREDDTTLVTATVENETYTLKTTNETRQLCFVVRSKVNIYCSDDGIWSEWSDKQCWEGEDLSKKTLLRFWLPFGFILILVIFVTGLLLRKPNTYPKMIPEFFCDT

B1: xi72B4H4 hIgG1 (antibody, V domains shown)
VH: QVQLQQPGAERVRPGASVKLSCKASGYTFTNYWMNWVKQRPEQGLEWIGRIDPYAGETHYNQKFKDKAILTVDKSSSTAYMQLRSLTSEDSAVYYCARGYGDSYGMDHWGQGTSVTVSS
VL: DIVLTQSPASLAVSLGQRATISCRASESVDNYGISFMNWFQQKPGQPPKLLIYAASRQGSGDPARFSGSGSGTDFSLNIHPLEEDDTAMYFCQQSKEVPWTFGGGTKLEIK
B2: xi61H8C1 hIgG1 (antibody, V domains shown)
VH: QVQLQQSGAELARPGASVMLSCKASGYTFTSYWTQWIKQRPGQGLEGIGAIYPGDDDTSYNQKFKGKATLTADKSSSTAYMQLNSLTSEDSAVYYCARGATLLRPFPYWGQGTLVTVSA
VL: DIVMTQSHKFMSTSVGDRVSITCKASQDVSTAVAWYQQKPGQSPKLLIYSASYRYTGVPDRFTGSGSGTDFTFTISSVQAEDLAVYSCQQHYSIPPTFGGGTKLEIK
B3: xi62F6A8 hIgG1 (antibody, V domains shown)
VH: B2 VH with L4I, S31D, T34M, D56G, S59A, K65R, T87A, Y95F, Y108F
VL: B2 VL with T56A
B4: xi57F8H3F1 hIgG1 (antibody, V domains shown)
VH: QVQLQQPGAELVRPGASVKLSCKASGYTFTNYWMNWIKQRPEQGLEWIGRIDPYETETHYNQKFRDRAILTVDKSSSTAFMQLSGLTSEDSAVYYCARGYGHYYGVDYWGQGTSVTVSS
VL: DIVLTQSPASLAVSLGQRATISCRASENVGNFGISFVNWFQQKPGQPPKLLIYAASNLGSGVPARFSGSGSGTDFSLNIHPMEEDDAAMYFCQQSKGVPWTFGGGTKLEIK
B5: xi73A11E2 hIgG1 (antibody, V domains shown)
VH: EVKLVESGGGLVKPGGSLKLSCAASGFTFSSYGMSWVRQTPEKRLEWVATISGGGSYTYYPDSVKGRFTISRDNARNNLYLQMNSLRSEDTALYYCARRDLRSAMDYWGQGTSVTVSS
VL: DIVMTQSQKFMSTSVGDRVSVTCKASQNVDINVAWYQQKPGQSPKALIYSASYRYSGVPDRFTGSGSGTDFTLTISNVQSEDLAEFFCQQYNSYPLTFGGGTKLEIK

Target: T1, human interleukin 13 receptor subunit …
Assay: cell-based or functional assay

Going from B1 to B2, the “internalization EC50 (pHAb dye), A375 cells” value falls from 1.06 nM to ~0.441 nM.

Going from B3 to B4, the “internalization EC50 (pHAb dye), A375 cells” value rises from ~0.447 nM to 0.74 nM.

For B5, the “internalization EC50 (pHAb dye), A375 cells” value was 0.77 nM.

Compared with B1, B2 is lower in “internalization EC50 (pHAb dye), CHO-K1/H_IL-13RA2 cells” value: 2.92 nM for the first, 1.02 nM for the second.

First: B3
Second: B4
The “internalization EC50 (pHAb dye), CHO-K1/H_IL-13RA2 cells” value of the first is lower: 1.17 nM for the first, 2.37 nM for the second.

For B5, the “internalization EC50 (pHAb dye), CHO-K1/H_IL-13RA2 cells” value was 1.52 nM.

First: B1
Second: B2
The “internalization EC50 (pHAb dye), HEK-293/H IL-13RA2 cells” value of the first is higher: 2.18 nM for the first, 1.49 nM for the second.

Going from B3 to B4, the “internalization EC50 (pHAb dye), HEK-293/H IL-13RA2 cells” value rises from 1.73 nM to 2.42 nM.

B5 was tested, and the “internalization EC50 (pHAb dye), HEK-293/H IL-13RA2 cells” value was 1.98 nM.

First: B1
Second: B2
The “internalization Top (MFI), A375 cells” value of the first is higher: 5260 MFI for the first, 3820 MFI for the second.

Compared with B3, B4 is lower in “internalization Top (MFI), A375 cells” value: 4530 MFI for the first, 2720 MFI for the second.

With B5 the “internalization Top (MFI), A375 cells” value was 4310 MFI.

Compared with B1, B2 is lower in “internalization Top (MFI), CHO-K1/H_IL-13RA2 cells” value: 18700 MFI for the first, 16900 MFI for the second.

Going from B3 to B4, the “internalization Top (MFI), CHO-K1/H_IL-13RA2 cells” value rises from 15900 MFI to 19200 MFI.

B5 was tested, and the “internalization Top (MFI), CHO-K1/H_IL-13RA2 cells” value was 17900 MFI.

First: B1
Second: B2
The “internalization Top (MFI), HEK-293/H IL-13RA2 cells” value of the first is lower: 19500 MFI for the first, 24700 MFI for the second.

Compared with B3, B4 is higher in “internalization Top (MFI), HEK-293/H IL-13RA2 cells” value: 22300 MFI for the first, 26000 MFI for the second.

For B5, the “internalization Top (MFI), HEK-293/H IL-13RA2 cells” value was 23500 MFI.

Target: T1, human interleukin 13 receptor subunit …
Assay: FACS on A375 cells
Experimental: A375 cells that endogenously expressed IL-13RA2, were harvested from flasks. 100 μl of 1×10⁶ cells/ml of cells were incubated with primary humanized antibodies in 4-fold serial dilutions starting from 200 nM to 0.003 nM for 30 minutes on ice. After being washed with 200 μl of FACS buffer twice, cells were incubated with secondary antibody for 30 minutes on ice. Cells were washed with 200 μl of FACS buffer twice and analyzed by FACS.

In the case of B1, the EC50 is reported as 0.36 nM and 0.581 nM.
For B4, the EC50 was 0.33 nM and 0.41 nM.
B5 was tested, and the EC50 was 0.26 nM and 0.359 nM and 0.45 nM.

Work on B2 yielded an EC50 of 0.16 nM.

Target: T1, human interleukin 13 receptor subunit …
Assay: FACS on A375 cells
Remark: another data set of the same source
Experimental: A375 cells that endogenously expressed IL-13RA2, were harvested from flasks. 100 μl of 1×10⁶ cells/ml of cells were incubated with primary chimeric antibodies in 3-fold serial dilutions starting from 300 nM to 0.002 nM for 30 minutes on ice. After being washed with 200 μl of FACS buffer twice, cells were incubated with secondary antibody for 30 minutes on ice. Cells were washed with 200 μl of FACS buffer twice and analyzed by FACS.
As shown in FIG. 3 and Table 4, the chimeric antibodies bound to human IL-13RA2 at different EC50.

Going from B1 to B2, the EC50 falls from 0.85 nM to 0.47 nM (1.8-fold).

Compared with B3, B4 is 2.1-fold higher in EC50: 0.48 nM for the first, 0.99 nM for the second.

B5 showed an EC50 of 0.65 nM.

Compared with B1, B2 is lower in “Top (MFI)” value: 16900 MFI for the first, 15600 MFI for the second.

Compared with B3, B4 is higher in “Top (MFI)” value: 15800 MFI for the first, 17600 MFI for the second.

For B5, the “Top (MFI)” value was 18000 MFI.
